For series [1], the system named is AncSZ. Description: phosphorylation enrichment, bacterial display (enrichment ratio); higher = better substrate or ligand; peptides without Tyr show the background.
The target of series [2] is EPHB1 (UniProt P54762). Described as above.
Series [3] addresses EPHB2 (UniProt P29323). Described as above.
Series [4] addresses FGFR1 (UniProt P11362). The description is as above.
The target in series [5] is FGFR3 (UniProt P22607). Described as above.
Series [6] relates to Fer (mouse). The series is described as above.
Series [7] has as its target Fes (UniProt P07332). Described as above.
The target of series [8] is Fyn (UniProt P06241). Described as above.
Series [9] deals with Hck (UniProt P08631). The series is described as above.
The target of series [10] is Jak2 (UniProt O60674). The series is described as above.
In series [11] the target is MERTK (UniProt Q12866). The description is as above.
The test system of series [12] is c-Abl (mouse). Described as above.
Series [13] has as its system c-Src. The series is described as above.
The target of series [14] is Grb2 SH2 (UniProt P62993). Description: SH2 binding enrichment of the phosphorylated peptide, bacterial display (enrichment ratio); higher = better substrate or ligand; peptides without Tyr show the background.
In series [15] the target is SHP2-C SH2. The description is as above.
For series [16], the target named is c-Src SH2. The description is as above.
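Wherever SH2 binding enrichment of the phosphorylated peptide, bacterial display is given: peptide library displayed on the E. coli surface as eCPX fusions, selected cells deep-sequenced, score is each peptide's frequency after selection divided by its frequency in the input.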
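Wherever phosphorylation enrichment, bacterial display is given: 11-residue human phosphosite peptides and single-mutation variants displayed on the E. coli surface, counted by deep sequencing, each peptide's frequency after selection divided by its frequency in the unselected input library; frequency after pTyr selection over input frequency; kinase dosed for 20-30% of maximal phosphorylation in three min.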

Hck, sequence (P08631 whole entry, looked up): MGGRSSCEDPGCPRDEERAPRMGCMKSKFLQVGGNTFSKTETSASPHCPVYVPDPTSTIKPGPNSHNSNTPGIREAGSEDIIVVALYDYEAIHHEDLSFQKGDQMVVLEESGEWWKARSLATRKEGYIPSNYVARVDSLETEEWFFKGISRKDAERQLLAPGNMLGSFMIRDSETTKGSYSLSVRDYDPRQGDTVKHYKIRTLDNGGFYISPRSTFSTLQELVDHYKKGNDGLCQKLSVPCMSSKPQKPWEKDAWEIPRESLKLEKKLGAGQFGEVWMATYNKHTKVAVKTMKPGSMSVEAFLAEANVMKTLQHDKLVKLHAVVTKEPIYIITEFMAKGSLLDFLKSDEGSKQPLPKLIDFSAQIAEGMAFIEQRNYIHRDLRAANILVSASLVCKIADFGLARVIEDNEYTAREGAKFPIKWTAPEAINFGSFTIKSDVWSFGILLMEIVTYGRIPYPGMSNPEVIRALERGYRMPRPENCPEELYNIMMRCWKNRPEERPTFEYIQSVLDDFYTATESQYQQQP
Jak2, sequence (O60674 whole entry, looked up): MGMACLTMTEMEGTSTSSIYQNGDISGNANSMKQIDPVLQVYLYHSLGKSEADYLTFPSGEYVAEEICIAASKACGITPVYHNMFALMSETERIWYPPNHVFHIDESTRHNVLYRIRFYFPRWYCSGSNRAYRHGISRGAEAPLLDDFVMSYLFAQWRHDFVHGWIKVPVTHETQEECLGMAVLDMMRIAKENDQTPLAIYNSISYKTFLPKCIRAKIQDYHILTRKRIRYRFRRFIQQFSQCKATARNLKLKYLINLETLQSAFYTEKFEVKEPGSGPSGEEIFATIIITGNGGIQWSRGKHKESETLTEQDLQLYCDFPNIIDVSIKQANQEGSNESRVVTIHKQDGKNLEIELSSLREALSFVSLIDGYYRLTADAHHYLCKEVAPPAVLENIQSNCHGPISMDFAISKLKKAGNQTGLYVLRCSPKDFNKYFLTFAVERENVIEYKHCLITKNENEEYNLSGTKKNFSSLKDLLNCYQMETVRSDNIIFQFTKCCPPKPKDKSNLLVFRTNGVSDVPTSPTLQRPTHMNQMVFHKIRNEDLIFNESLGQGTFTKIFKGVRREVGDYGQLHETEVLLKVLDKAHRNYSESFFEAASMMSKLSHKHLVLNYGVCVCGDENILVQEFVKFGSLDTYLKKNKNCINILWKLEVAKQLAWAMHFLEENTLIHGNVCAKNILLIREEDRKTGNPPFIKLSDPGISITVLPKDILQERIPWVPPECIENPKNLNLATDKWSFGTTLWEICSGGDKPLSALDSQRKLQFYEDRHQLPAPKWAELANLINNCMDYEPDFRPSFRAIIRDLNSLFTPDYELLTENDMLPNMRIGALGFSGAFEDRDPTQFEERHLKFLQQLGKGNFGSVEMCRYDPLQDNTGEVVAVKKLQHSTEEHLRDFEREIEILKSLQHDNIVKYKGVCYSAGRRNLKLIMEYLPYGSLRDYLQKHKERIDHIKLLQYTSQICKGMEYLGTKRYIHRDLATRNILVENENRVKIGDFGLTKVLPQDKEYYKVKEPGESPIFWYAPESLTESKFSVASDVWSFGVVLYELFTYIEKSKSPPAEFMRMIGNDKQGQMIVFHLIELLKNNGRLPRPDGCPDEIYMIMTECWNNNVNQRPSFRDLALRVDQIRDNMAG
Fes, sequence (P07332 whole entry, looked up): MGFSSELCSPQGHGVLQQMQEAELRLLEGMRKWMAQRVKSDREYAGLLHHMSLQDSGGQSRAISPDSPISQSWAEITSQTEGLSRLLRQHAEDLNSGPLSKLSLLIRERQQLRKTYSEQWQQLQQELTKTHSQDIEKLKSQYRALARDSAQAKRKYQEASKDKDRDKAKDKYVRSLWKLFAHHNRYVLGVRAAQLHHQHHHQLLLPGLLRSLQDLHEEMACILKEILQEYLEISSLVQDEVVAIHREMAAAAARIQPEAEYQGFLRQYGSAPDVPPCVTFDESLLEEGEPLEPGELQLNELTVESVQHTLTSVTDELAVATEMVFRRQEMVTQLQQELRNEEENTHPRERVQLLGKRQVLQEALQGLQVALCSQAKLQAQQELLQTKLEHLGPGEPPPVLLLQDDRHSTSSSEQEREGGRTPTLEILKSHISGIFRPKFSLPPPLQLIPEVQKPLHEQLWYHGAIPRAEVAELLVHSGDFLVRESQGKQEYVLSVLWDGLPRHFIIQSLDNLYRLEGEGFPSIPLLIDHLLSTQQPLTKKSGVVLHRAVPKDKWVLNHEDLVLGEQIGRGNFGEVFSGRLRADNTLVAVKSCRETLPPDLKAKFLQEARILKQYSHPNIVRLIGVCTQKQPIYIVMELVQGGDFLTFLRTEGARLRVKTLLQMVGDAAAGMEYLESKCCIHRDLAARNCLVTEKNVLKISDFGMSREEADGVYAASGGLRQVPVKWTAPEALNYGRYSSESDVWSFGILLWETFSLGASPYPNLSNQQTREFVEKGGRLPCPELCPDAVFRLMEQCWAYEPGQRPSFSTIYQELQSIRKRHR
EPHB2, sequence (P29323 whole entry, looked up): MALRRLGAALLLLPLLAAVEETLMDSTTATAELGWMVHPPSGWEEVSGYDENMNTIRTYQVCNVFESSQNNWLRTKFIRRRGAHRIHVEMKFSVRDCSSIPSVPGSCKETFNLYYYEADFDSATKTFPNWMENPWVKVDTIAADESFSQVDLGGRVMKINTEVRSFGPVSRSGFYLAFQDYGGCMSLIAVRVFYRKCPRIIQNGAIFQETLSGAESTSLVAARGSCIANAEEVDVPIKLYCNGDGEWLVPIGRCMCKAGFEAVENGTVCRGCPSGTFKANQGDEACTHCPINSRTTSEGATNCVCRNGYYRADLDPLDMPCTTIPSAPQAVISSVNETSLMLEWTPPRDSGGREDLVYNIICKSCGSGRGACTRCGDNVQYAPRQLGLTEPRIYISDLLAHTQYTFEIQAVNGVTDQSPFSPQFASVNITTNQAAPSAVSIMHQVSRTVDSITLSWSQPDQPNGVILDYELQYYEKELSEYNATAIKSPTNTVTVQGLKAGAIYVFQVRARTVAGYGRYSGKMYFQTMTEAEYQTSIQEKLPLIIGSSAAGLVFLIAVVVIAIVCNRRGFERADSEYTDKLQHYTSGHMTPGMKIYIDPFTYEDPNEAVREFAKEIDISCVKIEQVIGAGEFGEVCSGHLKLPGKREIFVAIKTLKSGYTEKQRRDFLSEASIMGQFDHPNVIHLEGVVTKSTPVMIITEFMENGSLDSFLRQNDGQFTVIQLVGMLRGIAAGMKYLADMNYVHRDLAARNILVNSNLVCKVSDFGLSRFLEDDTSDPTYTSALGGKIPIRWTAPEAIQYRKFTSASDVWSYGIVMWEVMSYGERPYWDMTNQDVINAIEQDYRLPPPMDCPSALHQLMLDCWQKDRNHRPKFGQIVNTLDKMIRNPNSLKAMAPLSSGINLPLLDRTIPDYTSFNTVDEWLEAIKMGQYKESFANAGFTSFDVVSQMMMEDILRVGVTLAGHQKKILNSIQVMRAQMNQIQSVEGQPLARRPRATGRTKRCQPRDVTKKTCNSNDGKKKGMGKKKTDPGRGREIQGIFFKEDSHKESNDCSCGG
Grb2 SH2, sequence (P62993 whole entry, looked up): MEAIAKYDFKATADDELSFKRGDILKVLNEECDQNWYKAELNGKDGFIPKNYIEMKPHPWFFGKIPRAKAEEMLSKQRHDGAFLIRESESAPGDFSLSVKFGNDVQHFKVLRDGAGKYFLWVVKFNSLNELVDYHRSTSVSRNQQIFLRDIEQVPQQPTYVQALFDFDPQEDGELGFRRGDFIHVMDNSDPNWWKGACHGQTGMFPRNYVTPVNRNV
FGFR1, sequence (P11362 whole entry, looked up): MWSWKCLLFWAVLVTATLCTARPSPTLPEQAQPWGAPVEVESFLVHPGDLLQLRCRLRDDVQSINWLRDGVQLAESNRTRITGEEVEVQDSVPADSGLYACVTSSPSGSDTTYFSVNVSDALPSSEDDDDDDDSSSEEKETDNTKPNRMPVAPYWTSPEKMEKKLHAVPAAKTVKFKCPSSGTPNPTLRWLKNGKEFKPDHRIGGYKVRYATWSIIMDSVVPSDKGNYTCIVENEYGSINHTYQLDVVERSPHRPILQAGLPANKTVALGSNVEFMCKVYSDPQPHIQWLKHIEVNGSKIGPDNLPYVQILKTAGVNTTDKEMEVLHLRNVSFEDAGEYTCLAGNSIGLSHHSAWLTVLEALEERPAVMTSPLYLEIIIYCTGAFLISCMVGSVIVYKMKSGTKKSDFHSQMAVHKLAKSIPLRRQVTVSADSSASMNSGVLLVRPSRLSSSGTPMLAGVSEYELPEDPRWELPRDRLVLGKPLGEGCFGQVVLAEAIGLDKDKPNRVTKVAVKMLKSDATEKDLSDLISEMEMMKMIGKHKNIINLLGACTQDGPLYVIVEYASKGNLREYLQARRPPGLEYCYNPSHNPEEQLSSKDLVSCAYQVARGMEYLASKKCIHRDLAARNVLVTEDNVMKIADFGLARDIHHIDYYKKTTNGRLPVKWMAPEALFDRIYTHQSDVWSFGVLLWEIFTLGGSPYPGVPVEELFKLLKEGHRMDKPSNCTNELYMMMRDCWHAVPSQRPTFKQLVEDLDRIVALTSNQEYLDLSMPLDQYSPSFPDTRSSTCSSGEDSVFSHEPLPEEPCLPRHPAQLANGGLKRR

VNTMLYEKFTY [TEK_Y1108_T1106M]: the phosphorylation enrichment was 1.23 in series [1]; 8.2 in [2]; 6.33 in series [3]; 0.856 in series [4]; 0.902 in series [5]; 10.4 in [6]. Also, the phosphorylation enrichment in [7] amounted to 1.03; in [8], 6.38; in series [9] it was 7.18; in series [10], 0.811; in series [11] it was 7.49; in [12], 1.82. Besides, in series [13], the phosphorylation enrichment is 5.53. The SH2 binding enrichment is 0.979 in series [14], 0.872 in [15] and 2.15 in series [16].

In the case of VNYGAYINDFK [GLB1_Y488], the phosphorylation enrichment in series [1] came to 0.773; in series [2], 0.709; in series [3], 1.22; in series [4] it was 0.469; in [5], 0.593; in [6], 0.402. Besides, the phosphorylation enrichment in series [7] amounted to 0.86; in [8] it was 0.912; in [9], 0.454; in series [10], 0.665; in [11], 0.373; in series [12] it was 0.515. In addition, the phosphorylation enrichment in [13] came to 0.761. Moreover, the SH2 binding enrichment in [14] came to 10.3; in series [15] it was 0.88; in [16], 4.76.

Consider VNYGAYINNFK [GLB1_Y488_D491N], for which the phosphorylation enrichment in series [1] is 0.677; in series [2] it was 0.743; in [3], 1.17; in [4], 0.453; in series [5], 0.513; in series [6] it was 0.423. The phosphorylation enrichment in [7] is 0.723; in series [8], 0.76; in series [9], 0.631; in series [10] it was 0.932; in series [11], 0.429; in [12] it was 0.483. Moreover, in series [13], the phosphorylation enrichment was found to be 0.876. Moreover, the results for the SH2 binding enrichment in series [14], in [15] and in series [16] were 1.54, 1.2 and 1.72, respectively.

With VPFAQYLAMNK [HARS1_Y138_R137Q], the phosphorylation enrichment in series [1] was found to be 0.685; in series [2], 0.488; in [3] it was 0.431; in series [4] it was 0.494; in series [5], 0.536; in series [6] it was 0.406. In addition, the phosphorylation enrichment in series [7] amounted to 0.639; in series [8], 0.458; in series [9], 0.54; in series [10], 0.838; in series [11], 0.403; in [12], 0.504. Further, the phosphorylation enrichment in series [13] was 0.44. In addition, the values for the SH2 binding enrichment in series [14], in series [15] and in [16] were 0.959, 0.798 and 0.533, respectively.

Turning to VQQVIYATGAL [MYH7_Y422], the phosphorylation enrichment came out at 0.932 in [1]; 0.96 in series [2]; 0.986 in [3]; 0.488 in [4]; 0.798 in [5]; 0.71 in [6]. Moreover, the phosphorylation enrichment in series [7] is 1; in [8], 6.98; in [9] it was 7.57; in series [10], 1.38; in series [11], 3.08; in [12], 25.3. In [13], the phosphorylation enrichment came to 5.97. In addition, the SH2 binding enrichment turned out to be 0.798 in series [14], 0.727 in series [15] and 0.413 in series [16].

With VRFTEYETQVK [TARDBP_Y155], the phosphorylation enrichment amounted to 0.791 in series [1]; 0.53 in [2]; 1.01 in series [3]; 0.413 in series [4]; 0.542 in series [5]; 0.431 in series [6]. Moreover, the phosphorylation enrichment in series [7] is 0.896; in [8], 0.4; in series [9], 0.519; in [10] it was 0.761; in series [11], 0.401; in [12] it was 0.629. Besides, in series [13], the phosphorylation enrichment turned out to be 0.406. Further, the SH2 binding enrichment in series [14] amounted to 0.813; in [15] it was 0.754; in [16] it was 0.583.

In the case of VRTGIYHGGKP [PIK3CA_Y361_E365K], the phosphorylation enrichment in series [1] was found to be 0.451; in series [2], 0.268; in [3], 0.336; in [4], 0.456; in series [5] it was 0.275; in series [6], 0.359. Also, the phosphorylation enrichment in [7] came to 0.499; in [8], 0.309; in series [9], 0.713; in series [10] it was 0.464; in series [11], 0.294; in series [12] it was 0.501. Moreover, the phosphorylation enrichment in series [13] was 0.318. The results for the SH2 binding enrichment in series [14], in [15] and in series [16] were 0.898, 0.915 and 0.63, respectively.

On to VSGIPYGQPKQ [NEU1_Y251], for which the phosphorylation enrichment in [1] was found to be 0.494; in [2], 0.349; in series [3], 0.323; in series [4], 0.415; in [5], 0.437; in series [6], 0.44. Also, the phosphorylation enrichment in series [7] amounted to 0.57; in [8], 0.339; in [9] it was 0.419; in [10], 0.522; in [11] it was 0.336; in [12] it was 0.422. The phosphorylation enrichment in [13] was 0.434. Also, the SH2 binding enrichment in series [14] is 0.94; in series [15] it was 1.22; in series [16] it was 0.331.

VSLEAYCKHKF [RXRA_Y403_A398V_YF]: the phosphorylation enrichment in [1] is 0.949; in series [2], 0.571; in series [3], 0.509; in series [4], 0.392; in [5], 0.568; in series [6], 0.411. Besides, the phosphorylation enrichment in series [7] was determined as 1.07; in series [8], 0.399; in series [9] it was 0.353; in series [10] it was 1.11; in [11], 0.443; in series [12], 0.898. Also, in series [13], the phosphorylation enrichment came to 0.556. Moreover, the SH2 binding enrichment in series [14] worked out at 0.702; in [15] it was 0.674; in series [16], 0.337.

Values taken from the supplement of paper PMC10065799, “High-throughput profiling of sequence recognition by tyrosine kinases and SH2 domains using bacterial peptide display” (eLife, 2023).
